Test results from article PMC11187910.

Columns and labels:
IDH1 = IDH1 (UniProt O75874); assay: co-IP of Flag-IDH1 and HA-IDH1; conditions: reference: Flag-IDH1 wild type, MPA; sites T77
OCT6 (POU3F1) = OCT6 (POU3F1) (UniProt Q03052); assay: co-immunoprecipitation; conditions: reference: wild type, MPA; sites T77
isocitrate (ICT) = assay: SPR; conditions: 1:1 binding model

Chain of UniProt O75874 (O75874 whole entry T77A): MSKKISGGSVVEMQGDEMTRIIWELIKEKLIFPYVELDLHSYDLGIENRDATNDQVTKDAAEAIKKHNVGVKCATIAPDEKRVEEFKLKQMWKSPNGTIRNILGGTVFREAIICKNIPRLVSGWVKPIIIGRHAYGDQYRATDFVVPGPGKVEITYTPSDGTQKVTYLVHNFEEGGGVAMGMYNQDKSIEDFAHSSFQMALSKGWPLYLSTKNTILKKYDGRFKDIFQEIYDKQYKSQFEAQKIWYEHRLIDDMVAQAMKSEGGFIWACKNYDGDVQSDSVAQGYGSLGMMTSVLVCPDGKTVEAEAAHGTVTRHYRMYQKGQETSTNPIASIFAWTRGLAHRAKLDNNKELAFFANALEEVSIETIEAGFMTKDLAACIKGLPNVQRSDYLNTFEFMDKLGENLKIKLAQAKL

Substance: IDH1 (from UniProt O75874) Flag-IDH1 T77A, MPA
- binding against the reference (IDH1): weaker

Substance: IDH1 (from UniProt O75874) T77A, MPA
- binding against the reference (OCT6 (POU3F1)): weaker

Substance: recombinant IDH1 WT T77A
- Kd (isocitrate (ICT)): 0.112 µM
